# Patent US20240200091A1, “USE OF PROTOPORPHYRINOGEN OXIDASE” (BEIJING DABEINONG BIOTECHNOLOGY CO., LTD., priority 2021, published 2024)
# B1: PPO9A: nucleotide sequence encoding microbial protoporphyrinogen oxidase PPO9 (SEQ ID NO:9), Arabidopsis thaliana/soybean common codon usage bias (nucleic acid)
# DNA: ATGGAGAAAGTTCTTCTACTGCATTCTTCCTCTGATGGTCAGACAGTGAAGATTCTCAGACATATTGAAACAACATTAGGTGGTGATTACCAATGTGAGCTTGTGGATTTGAATACTCTGCCGACTGTTGATTTTGCTGATTATGACCGTGTCTTAGTAGGCGCGAGTATACGCTATGGGCACCTCAACAAGAAACTCTACCAGTTTATAGAGAGATACAGAGATGAATTGGACCAAAACAAAGTAGGTTTCTTCTGCGTGAATCTTACTGCAAGGAAAGAAGGAAAGAATACGCCTGAGACTAGCGTTTACATGAAGACCTTTTTGAAGAAGTCGCCATGGTGTCCAAAATTGCAAGAAGTTTTCGCTGGAGCTCTTCGTTATCCTCGGTATGGATGGTTTGATAGGGTCATGATTCAGTTCATCATGAGAATCACGGGGGGAGAAACCGACACATCAAAAGAGGTTGAGTATACTGATTGGCAAAAGGTTGAAGCTTTTGCAGCCCGATTCAAACATTACTGA
# modifications: The nucleotide sequence of PPO9A
# Tests used:
# Type in all cases: in vivo
# Conditions in all cases: 7 DAT, number of plants of 24 per genotype, grades
# [1] = tested on: Arabidopsis thaliana T1 plants; assay: flumioxazin tolerance of transgenic Arabidopsis thaliana T1 plants (spray, grade of pesticide damage)
# In short: (§1)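 Saflufenacil (25, 100 g ai/ha), sulfentrazone (450, 900), flumioxazin (60, 240) and oxyfluorfen (180, 720) or water were sprayed on 18-day-old PPO-transgenic T1 plants, control-vector and wild-type plants, 24 per genotype. Seven days later, damage was graded: 0 as in water controls, 1 <10% injured leaf area, 3 100%.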
# [2] = tested on: Arabidopsis thaliana T1 plants; assay: oxyfluorfen tolerance of transgenic Arabidopsis thaliana T1 plants (spray, grade of pesticide damage)
# In short: as §1
# [3] = tested on: Arabidopsis thaliana T1 plants; assay: sulfentrazone tolerance of transgenic Arabidopsis thaliana T1 plants (spray, grade of pesticide damage)
# In short: as §1
# [4] = tested on: Arabidopsis thaliana T1 plants; assay: saflufenacil tolerance of transgenic Arabidopsis thaliana T1 plants (spray, grade of pesticide damage)
# In short: as §1
molecule,measurement,setting,value
B1,The grade of pesticide damage/plant: grade 0,[1]; flumioxazin 60 g ai/ha (1×),24 plant
same,The grade of pesticide damage/plant: grade 1,[1]; flumioxazin 60 g ai/ha (1×),0 plant
same,The grade of pesticide damage/plant: grade 2,[1]; flumioxazin 60 g ai/ha (1×),0 plant
same,The grade of pesticide damage/plant: grade 3,[1]; flumioxazin 60 g ai/ha (1×),0 plant
same,The grade of pesticide damage/plant: grade 0,[1]; flumioxazin 240 g ai/ha (4×),24 plant
same,The grade of pesticide damage/plant: grade 1,[1]; flumioxazin 240 g ai/ha (4×),0 plant
same,The grade of pesticide damage/plant: grade 2,[1]; flumioxazin 240 g ai/ha (4×),0 plant
same,The grade of pesticide damage/plant: grade 3,[1]; flumioxazin 240 g ai/ha (4×),0 plant
same,The grade of pesticide damage/plant: grade 0,[2]; oxyfluorfen 180 g ai/ha (1×),24 plant
same,The grade of pesticide damage/plant: grade 1,[2]; oxyfluorfen 180 g ai/ha (1×),0 plant
same,The grade of pesticide damage/plant: grade 2,[2]; oxyfluorfen 180 g ai/ha (1×),0 plant
same,The grade of pesticide damage/plant: grade 3,[2]; oxyfluorfen 180 g ai/ha (1×),0 plant
same,The grade of pesticide damage/plant: grade 0,[2]; oxyfluorfen 720 g ai/ha (4×),20 plant
same,The grade of pesticide damage/plant: grade 1,[2]; oxyfluorfen 720 g ai/ha (4×),4 plant
same,The grade of pesticide damage/plant: grade 2,[2]; oxyfluorfen 720 g ai/ha (4×),0 plant
same,The grade of pesticide damage/plant: grade 3,[2]; oxyfluorfen 720 g ai/ha (4×),0 plant
same,The grade of pesticide: grade 0,[3]; sulfentrazone 450 g ai/ha (1×),24
same,The grade of pesticide: grade 1,[3]; sulfentrazone 450 g ai/ha (1×),0
same,The grade of pesticide: grade 2,[3]; sulfentrazone 450 g ai/ha (1×),0
same,The grade of pesticide: grade 3,[3]; sulfentrazone 450 g ai/ha (1×),0
same,The grade of pesticide: grade 0,[3]; sulfentrazone 900 g ai/ha (2×),18
same,The grade of pesticide: grade 1,[3]; sulfentrazone 900 g ai/ha (2×),6
same,The grade of pesticide: grade 2,[3]; sulfentrazone 900 g ai/ha (2×),0
same,The grade of pesticide: grade 3,[3]; sulfentrazone 900 g ai/ha (2×),0
same,The grade of pesticide damage/plant: grade 0,[4]; saflufenacil 25 g ai/ha (1×),24 plant
same,The grade of pesticide damage/plant: grade 1,[4]; saflufenacil 25 g ai/ha (1×),0 plant
same,The grade of pesticide damage/plant: grade 2,[4]; saflufenacil 25 g ai/ha (1×),0 plant
same,The grade of pesticide damage/plant: grade 3,[4]; saflufenacil 25 g ai/ha (1×),0 plant
same,The grade of pesticide damage/plant: grade 0,[4]; saflufenacil 100 g ai/ha (4×),0 plant
same,The grade of pesticide damage/plant: grade 1,[4]; saflufenacil 100 g ai/ha (4×),24 plant
same,The grade of pesticide damage/plant: grade 2,[4]; saflufenacil 100 g ai/ha (4×),0 plant
same,The grade of pesticide damage/plant: grade 3,[4]; saflufenacil 100 g ai/ha (4×),0 plant
